Molecular target: T1, FLAG-PRMT5 (UniProt O14744 1-637)
T1 construct: PRMT5, wild type; Enriched from HEK293T lysate by one FLAG step; cellular partners such as MEP50 may have come along (surmise); also called FLAG-PRMT5^WT; FLAG-tagged PRMT5; source: HEK293T, transfected, immunopurified on FLAG beads and eluted with FLAG peptide
Test: pull-down; His-FUBP1 (from E. coli) and FLAG-PRMT5 (enriched from HEK293T lysate) in vitro, with the PUBLISH peptide as competitor
Settings: both partners purified

T1 sequence (O14744 whole entry): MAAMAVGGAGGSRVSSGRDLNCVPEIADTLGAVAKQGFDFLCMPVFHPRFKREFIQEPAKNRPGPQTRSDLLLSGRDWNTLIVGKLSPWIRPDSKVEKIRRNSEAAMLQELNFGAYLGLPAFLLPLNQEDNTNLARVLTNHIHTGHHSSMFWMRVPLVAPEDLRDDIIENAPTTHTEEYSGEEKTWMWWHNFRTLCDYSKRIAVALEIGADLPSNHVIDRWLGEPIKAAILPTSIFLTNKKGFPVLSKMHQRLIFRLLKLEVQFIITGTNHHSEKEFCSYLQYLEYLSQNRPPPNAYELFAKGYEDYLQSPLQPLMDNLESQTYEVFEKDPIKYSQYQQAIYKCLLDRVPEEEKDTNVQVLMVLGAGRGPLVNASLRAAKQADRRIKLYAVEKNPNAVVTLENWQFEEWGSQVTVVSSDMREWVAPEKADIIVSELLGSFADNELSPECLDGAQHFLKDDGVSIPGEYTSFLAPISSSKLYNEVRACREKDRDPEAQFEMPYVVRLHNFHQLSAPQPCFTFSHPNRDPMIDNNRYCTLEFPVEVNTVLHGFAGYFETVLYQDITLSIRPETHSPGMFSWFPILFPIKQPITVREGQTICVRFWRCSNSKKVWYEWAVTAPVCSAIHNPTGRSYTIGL

binding result: binds
B1: PRMT5-mediated FUBP1 methylation abolishing (PUBLISH) peptide (peptide, UniProt Q96AE4 353-367, looked up)
peptide: GPGPGGRGRGRGQGN
notes: FUBP1 amino acids 353-367, with R359/R361/R363; For cells it was delivered as BPAE/peptide nanocomplexes; also called PUBLISH^WT; source: synthetic peptide
